Assay results reported in patent US20210115143A1.

Target: hPD-L1-Fc fusion protein (made in the filing, Example 1) (human) (UniProt Q9NZQ7)
Assay: SPR, Biacore X100, hPD-L1-Fc on CM5 chip, antibody in solution, 25 C

hPD-L1-Fc fusion protein (made in the filing, Example 1) (human), sequence (Q9NZQ7 19-238 limits assumed): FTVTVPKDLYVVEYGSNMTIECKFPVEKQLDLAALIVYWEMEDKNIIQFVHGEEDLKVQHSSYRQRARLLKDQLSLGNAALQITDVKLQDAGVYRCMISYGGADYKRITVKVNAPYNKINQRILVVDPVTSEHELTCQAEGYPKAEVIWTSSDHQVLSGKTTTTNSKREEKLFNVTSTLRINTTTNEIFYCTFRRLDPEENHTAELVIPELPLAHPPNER

- Kd: 81.9 nM
- koff: 0.0137 s⁻¹
- kon: 167000 M⁻¹ s⁻¹
B1: B50-6 mAb (anti-hPD-L1, human IgG1, lambda) (antibody, part only; not given: human IgG1 and lambda constants, part only)
heavy, part: QVQLQQSGPGLVKPSQTLSLTCAISGDSVSSTKAAWYWIRQSPSRGLEWLGRTYFRSKWYNDYADSVKSRLTINPDTSKNQFSLQLKSVSPEDTAVYYCARGQYTAFDIWGQGTMVTVSS
light, part: QVQLVQSGAEVKKPASSVKVSCTASGGSFSTYAISWVRQAPGQGLEWMGGIIPIFGTTKYAQRFQGRVTITADESTTTAYMELSSLISDDTALYYCTTSRGFSYGWFDYWGQGTLVTVSS
